This data set concerns dSpCas9-GFP (Streptococcus pyogenes). The data set can be described thus: MST. As to conditions: MST: 20 mM HEPES pH 7.5, 150 mM KCl, 1 mM DTT, 10 mM MgCl2.

In turn, EMX1 off-target (30 bp) with EMX1 sgRNA came in with a Kd of 27.2 nM.
Next, EMX1 target (30 bp) with EMX1 sgRNA: 10.9 nM; “VEGFA3 off-target (30 bp) with VEGFA3 sgRNA”: 142 nM.
VEGFA3 target (30 bp) with VEGFA3 sgRNA showed a Kd of 49.6 nM.

The values above are taken from publication doi:10.1101/591263.
